Assay results from the nanobody polyreactivity screen of Harvey et al. (2022).

Test: yeast display, Sf9 membrane polyspecificity reagent, FACS + sequencing; frameworks hold sequencing errors
In short: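 Genes from sorted yeast were amplified by colony PCR, read by MiSeq 2 × 250 sequencing and filtered on CDR length. These cells carried a synthetic nanobody library in Saccharomyces cerevisiae BJ5465 and were sorted by FACS into low and high (top ~1%) gates on anti-HA and streptavidin fluorescence. Polyreactivity is labelled according to the gate of origin.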
For “QVQLVESGGGLVQAGGSLRLSCAASGRIFGKYAMGWYRPAPGKERELVAAIDGSGSTNYADSVKGRFTISRDNAKNTVYLQMNSLKPEDTAVYYCATDHAQKFRYRSPREYWGEGTQVTVSS”, the “polyreactivity (PSR sort gate)” value was “low polyreactivity”. In the case of “QVQLVESGGGLVQAGGSLRLSCAASGRIFGKYAMGWYRQAPGKERELVAVITSRDGRTYYADSVKGRFTISRDNAKNTVYLQMNSLIPEDTAVYYCAADYWTGITPDAIGDYWGQGTQVTVSS”, the “polyreactivity (PSR sort gate)” value is reported as “low polyreactivity”. With “QVQLVESGGGLVQAGGSLRLSCAASGRIFGKYAMGWYRQAPGKERELVAVITSRDGRTYYADSVKGRFTISRDNAKNTVYLQMNSLKPEDTAVYYCAADLVNGHYYYWGQGTQVTVSS” the “polyreactivity (PSR sort gate)” value was “low polyreactivity”. With “QVQLVESGGGLVQAGGSLRLSCAASGRIFGLNAMGWYRQAPGKETEFVAAITWRGGRTYYADSVKGRFTISRDKANKTVYLQMNSLKPEDTAVYYCAADGGSTLDYFWGQGTQVTVSS” the “polyreactivity (PSR sort gate)” value was “low polyreactivity”. In the case of “QVQLVESGGGLVQAGGSLRLSCAASGRIFGLYAMGWYRQAPGKERELVATITRRGGSTYYADSVKGRFTISRDNAKNTVYLQMNSLKPEDTAVYYCNVRTLVQHHSSYSSRYDSWGQGTQVTVSS”, the “polyreactivity (PSR sort gate)” value is reported as “high polyreactivity”. With “QVQLVESGGGLVQAGGSLRLSCAASGRIFGLYSRGSYRQAPGKERELVAAISSRGGSTYYADSVKGRFTISRDNAKNTVYLQMNSLKPEDTAVYYCARETSYFGPSDYDYWGQGTQVTVSS” the “polyreactivity (PSR sort gate)” value was “high polyreactivity”. For “QVQLVESGGGLVQAGGSLRLSCAASGRIFGNNVMGWYRQAPGKERELVASINYSGGSTYYADSVKGRFTISRDNAKNTVYLQMNSLKPEDTAVYYCARSYGWYPWRTSYTVGFYYWGQGTQVTVSS”, the “polyreactivity (PSR sort gate)” value was “high polyreactivity”. With “QVQLVESGGGLVQAGGSLRLSCAASGRIFGPYAMGWSRQAPGKERELVASISYSGGSTYYADSVKGRFTISRDNAKNTVYLQMNSLKPEDTAVYYCNALSRTAWSYYLYPSTPFDYWGQGTQVTVSS” the “polyreactivity (PSR sort gate)” value was “low polyreactivity”. With “QVQLVESGGGLVQAGGSLRLSCAASGRIFGPYAMGWYRQAPGKERELVASITRSGGRTYYADSVKGRFTISRDNAKNTVYLQMNSLKPEDSAVYYCAAGGFSKSYYYWGQGSQVTVSS” the “polyreactivity (PSR sort gate)” value was “high polyreactivity”. For “QVQLVESGGGLVQAGGSLRLSCAASGRIFGPYTMGWYRQAPGKEREFVAAITRRGGSTYYADSVKGRFTISRDNAKNTVYLQMNSLKPEDTAVYYCAAVGQKRSLGYSWGQGTQVTVSS”, the “polyreactivity (PSR sort gate)” value was “low polyreactivity”. With “QVQLVESGGGLVQAGGSLRLSCAASGRIFGPYTMGWYRQAPGKERELVATISYSGSTTYYADSVKWRFTISRDNAKNTVYLQMNSLKPEDTAVYYCNAQYYVFITFDYWGQGTQGTVSS” the “polyreactivity (PSR sort gate)” value was “high polyreactivity”. In the case of “QVQLVESGGGLVQAGGSLRLSCAASGRIFGQNAMGWYRQAPGKERELVAAITGSGGRTYYADSVKGRFTISRDNAKNTVYLQMNSLKPEYTAVYYCAVSVTSYYRTMDYWGQGTQVTVSS”, the “polyreactivity (PSR sort gate)” value is reported as “low polyreactivity”. In the case of “QVQLVESGGGLVQAGGSLRLSCAASGRIFGQYAMGWYRQAPGKEREFVAGISTTGGSTYYADSVKGRFTISRDNAKNTVYLQMNSLKPEDTAVYYCAVRINWSRWYHYYTYNYWGQGTQVTVSS”, the “polyreactivity (PSR sort gate)” value is reported as “high polyreactivity”. With “QVQLVESGGGLVQAGGSLRLSCAASGRIFGQYTMGWYRQAPGKERELVAAISRSSSTKYADSVKGRFTISRDNAKNTVYLQMNSLKPEDTAVYYCAAYVYYYGGRTYDYWGQGTQVTVSS” the “polyreactivity (PSR sort gate)” value was “high polyreactivity”. For “QVQLVESGGGLVQAGGSLRLSCAASGRIFGRNAMGWYRQAPGKERELVAGISGRGGITYYADSVKGRFTISRDNAKNTVYLQMNSLKPEDTAVYYCAATGGDYYDFSYWGQGTQVTVSS”, the “polyreactivity (PSR sort gate)” value was “high polyreactivity”. With “QVQLVESGGGLVQAGGSLRLSCAASGRIFGRNAMGWYRQAPGKERELVASITSGGGTNYADSVKGRFTISRDNAKNTVYLQMNSLKPEDTAVYYCAAKRHLEGYSGSIGRYYYWGQGTQVTVSS” the “polyreactivity (PSR sort gate)” value was “low polyreactivity”. With “QVQLVESGGGLVQAGGSLRLSCAASGRIFGRNPMGWYRQAPGKERELVAAITSRGTRTYYADSVKGRFTISRDNAKNTVYLQMISLKPEDTAVYYCNAAYYHSSSYPDYDYWGQGTQVTVSS” the “polyreactivity (PSR sort gate)” value was “high polyreactivity”. In the case of “QVQLVESGGGLVQAGGSLRLSCAASGRIFGRYAMGWYRPAPGKERELVAAISRSGGSTYYADSVKGRFTISRDNAKNTVYLHMNSLKPEDTAVYYCAAERWTRRHYSGNDYWGQGTQVTVSS”, the “polyreactivity (PSR sort gate)” value is reported as “low polyreactivity”. In the case of “QVQLVESGGGLVQAGGSLRLSCAASGRIFGRYAMGWYRQAPGKEREFVATITSRGGNTYYADSVKGRFTISRDTAKNSVYLQMNSLKPEDTAVYYCNADYLWFNFYYWGQGTQVTVSS”, the “polyreactivity (PSR sort gate)” value is reported as “low polyreactivity”. In the case of “QVQLVESGGGLVQAGGSLRLSCAASGRIFGRYAMGWYRQAPGKERELVAAIPRNGGSTYADSVNGRFTISRDNAKNTVYLQMNILKPEDTAVYYCAKKRGGKKSGPHDYWGQGTQVTVSS”, the “polyreactivity (PSR sort gate)” value is reported as “high polyreactivity”. In the case of “QVQLVESGGGLVQAGGSLRLSCAASGRIFGRYAMGWYRQAPGKERELVAAISGGGSTNYADSVKGRFTISRDNAKNTVYLQMNSLKPEDTAVYYCAADDDWSGVEFDYWGQGTQVTVSS”, the “polyreactivity (PSR sort gate)” value is reported as “low polyreactivity”. With “QVQLVESGGGLVQAGGSLRLSCAASGRIFGRYAMGWYRQAPGKERELVAAISSGGNTYYADSVKGRFTISRDNAKNTVYLQMNSLKPEDTAVYYCKALYYRQPGYDYWGQGTQVTVSS” the “polyreactivity (PSR sort gate)” value was “high polyreactivity”. For “QVQLVESGGGLVQAGGSLRLSCAASGRIFGRYAMGWYRQAPGKERELVAAITGRGASTYYADSVKGRFTISRDNAKNTVYLQMNSLKPEDTAVYYCNAFRGAQGTDAYDWGQGTQVTVSS”, the “polyreactivity (PSR sort gate)” value was “low polyreactivity”. In the case of “QVQLVESGGGLVQAGGSLRLSCAASGRIFGRYAMGWYRQAPGKERELVAGITGSSGTTYYADSVKGRFTISLDNAKNTVYLQMNSLKPEDTAVYYCAVETYWHARSHDYWGQGTQVTVSS”, the “polyreactivity (PSR sort gate)” value is reported as “low polyreactivity”. For “QVQLVESGGGLVQAGGSLRLSCAASGRIFGRYAMGWYRQAPGNERELVAAISRRGSRTYYADSVKGRFTISRDNAKNTVYLQMNSLKPEDTAVYYCNALTGSFKTYSFDYWGQGTQVTVSS”, the “polyreactivity (PSR sort gate)” value was “high polyreactivity”. With “QVQLVESGGGLVQAGGSLRLSCAASGRIFGRYGMGWYRQAPGKERELVAAISRSGDRTYYADSVKGRFTISRDNAKNTVYLQMNSLKPEDTAVYYCAAYSYRYDYWGQGTQVTVSS” the “polyreactivity (PSR sort gate)” value was “high polyreactivity”. In the case of “QVQLVESGGGLVQAGGSLRLSCAASGRIFGSNTMGWFRQAPGKERELVAAITGDDSTYADSVKGRFTISRDNAKNTVYLQMNSLKPVDTAVYYCAVVWVWDVWFLVYYWGQGTQVTVSS”, the “polyreactivity (PSR sort gate)” value is reported as “low polyreactivity”. With “QVQLVESGGGLVQAGGSLRLSCAASGRIFGSYAMGWYRQAPGKERELVAAITTDDSTNYADSVKGRFTISRDNAKNTVYLQMNSLKPEDTAVYYCNAERWDELFDSWGQVTQVTVSS” the “polyreactivity (PSR sort gate)” value was “low polyreactivity”. In the case of “QVQLVESGGGLVQAGGSLRLSCAASGRIFGSYVMGWYRQAPGKERELVAAISRGGSTYYADSVKGRFTISRDNAKNTVYLQLNSLTPEDTAVYYCAAYSIYGTSYLYTQAFYYWGQGTQVTVSS”, the “polyreactivity (PSR sort gate)” value is reported as “high polyreactivity”. In the case of “QVQLVESGGGLVQAGGSLRLSCAASGRIFGTHDMGWYRQAPGKESELVAAIRATSGSTYYADSVKGRFTISRDNAKNTVYLQMYSLKPEDTAVYYCAAEIWRYNSYIKYWHRVDYWGQGTQVTVSS”, the “polyreactivity (PSR sort gate)” value is reported as “high polyreactivity”. For “QVQLVESGGGLVQAGGSLRLSCAASGRIFGTNAMGWYRQAPGKERELVADITSGGSTNYADSVKGRFTISRDNAKNTVYLQMNSLTPEDTAVYYCAADVIGDLRWYRDEYWGQGTQVTVSS”, the “polyreactivity (PSR sort gate)” value was “low polyreactivity”. For “QVQLVESGGGLVQAGGSLRLSCAASGRIFGTNAMGWYRQAPGKERELVATITRGGGNTYYADSVKGRFTISRDNAKNTVYLQMNSLKPEDTAVYYCAAKFNRFAWYSHYDYWGQGTLVTVSS”, the “polyreactivity (PSR sort gate)” value was “low polyreactivity”.
